From patent US20240010684A1 (Bayer, published 2024)
Like-named read-outs stand apart in the source and are kept apart here. Bridges are numbered along the chain shown (N, C = ends). [ ]: non-standard residue; d: D form. tBuAla = CC(C)(C)C[C@H](N)C(=O)O; Pen = CC(C)(S)[C@H](N)C(=O)O; Ahx = NCCCCCC(=O)O; Sar = CNCC(=O)O

T1: recombinant human MASP1 (amino acids 297-699, C-terminal His Tag) (human, UniProt P48740 297-699)
T1 sequence: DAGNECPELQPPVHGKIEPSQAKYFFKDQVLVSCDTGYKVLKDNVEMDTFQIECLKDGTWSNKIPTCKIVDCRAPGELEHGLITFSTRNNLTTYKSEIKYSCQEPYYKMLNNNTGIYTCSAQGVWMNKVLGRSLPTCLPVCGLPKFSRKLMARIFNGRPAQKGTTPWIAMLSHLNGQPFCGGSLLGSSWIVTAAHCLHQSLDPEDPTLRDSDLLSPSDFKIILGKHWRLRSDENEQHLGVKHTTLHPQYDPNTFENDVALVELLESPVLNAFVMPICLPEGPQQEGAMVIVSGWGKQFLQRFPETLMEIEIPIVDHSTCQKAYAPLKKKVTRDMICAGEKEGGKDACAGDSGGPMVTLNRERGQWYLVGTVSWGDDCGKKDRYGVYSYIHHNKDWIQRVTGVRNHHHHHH

T2: recombinant rat MASP1 (amino acids 302-704, C-terminal His Tag) (rat, UniProt Q8CHN8 302-704)
T2 sequence: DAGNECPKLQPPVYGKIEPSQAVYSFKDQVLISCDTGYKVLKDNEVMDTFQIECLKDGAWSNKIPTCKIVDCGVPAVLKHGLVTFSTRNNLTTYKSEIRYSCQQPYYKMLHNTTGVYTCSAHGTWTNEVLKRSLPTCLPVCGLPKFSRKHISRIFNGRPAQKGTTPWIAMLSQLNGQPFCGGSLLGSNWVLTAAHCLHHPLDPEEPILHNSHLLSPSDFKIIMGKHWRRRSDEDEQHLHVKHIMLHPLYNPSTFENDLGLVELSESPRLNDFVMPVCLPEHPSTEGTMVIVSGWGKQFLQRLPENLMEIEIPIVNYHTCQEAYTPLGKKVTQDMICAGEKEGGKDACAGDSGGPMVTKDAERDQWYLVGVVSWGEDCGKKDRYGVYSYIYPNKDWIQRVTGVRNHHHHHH

B1: Bicyclic SFMI-1: G**IC+SRSLPPIC+IPD** (peptide)
peptide: cyclo(GICSRSLPPICIPD)
modifications: disulfide 3-11
SMILES: CC[C@H](C)[C@@H]1NC(=O)CNC(=O)[C@H](CC(=O)O)NC(=O)[C@@H]2CCCN2C(=O)[C@H]([C@@H](C)CC)NC(=O)[C@@H]2CSSC[C@H](NC1=O)C(=O)N[C@@H](CO)C(=O)N[C@@H](CCCNC(=N)N)C(=O)N[C@@H](CO)C(=O)N[C@@H](CC(C)C)C(=O)N1CCC[C@H]1C(=O)N1CCC[C@H]1C(=O)N[C@@H]([C@@H](C)CC)C(=O)N2
B2: Bicyclic SFMI-2: G**YC+SRSYPPVC+IPD** (peptide)
peptide: cyclo(GYCSRSYPPVCIPD)
modifications: disulfide 3-11
SMILES: CC[C@H](C)[C@@H]1NC(=O)[C@@H]2CSSC[C@H](NC(=O)[C@H](Cc3ccc(O)cc3)NC(=O)CNC(=O)[C@H](CC(=O)O)NC(=O)[C@@H]3CCCN3C1=O)C(=O)N[C@@H](CO)C(=O)N[C@@H](CCCNC(=N)N)C(=O)N[C@@H](CO)C(=O)N[C@@H](Cc1ccc(O)cc1)C(=O)N1CCC[C@H]1C(=O)N1CCC[C@H]1C(=O)N[C@@H](C(C)C)C(=O)N2
B3: Reference peptide 12: P**FC+IPPISKTC+RGD** (peptide)
peptide: cyclo(PFCIPPISKTCRGD)
modifications: disulfide 3-11
SMILES: CC[C@H](C)[C@@H]1NC(=O)[C@@H]2CCCN2C(=O)[C@@H]2CCCN2C(=O)[C@H]([C@@H](C)CC)NC(=O)[C@@H]2CSSC[C@H](NC(=O)[C@H]([C@@H](C)O)NC(=O)[C@H](CCCCN)NC(=O)[C@H](CO)NC1=O)C(=O)N[C@@H](CCCNC(=N)N)C(=O)NCC(=O)N[C@@H](CC(=O)O)C(=O)N1CCC[C@H]1C(=O)N[C@@H](Cc1ccccc1)C(=O)N2

Columns and labels:
Experiment in all cases: cell-based or functional assay
[1] = biological target: T1, recombinant human MASP1 (amino acids …)
[2] = biological target: T3, recombinant human MASP2 (amino acids 297-686, C-terminal His Tag) (human, UniProt O00187 297-686)
[3] = biological target: T2, recombinant rat MASP1 (amino acids …)
[4] = biological target: T4, recombinant rat MASP2 (amino acids 296-685, C-terminal His Tag) (rat, UniProt Q9JJS8 296-685)
[5] = biological target: T1, recombinant human MASP1 (amino acids …); remark: listed apart in the source
[6] = biological target: T3, recombinant human MASP2 (amino acids …); remark: listed apart in the source
[7] = biological target: T2, recombinant rat MASP1 (amino acids …); remark: listed apart in the source
[8] = biological target: T4, recombinant rat MASP2 (amino acids …); remark: listed apart in the source

T4 sequence (Q9JJS8 other isoform, or with tags, fused parts or gaps limits assumed): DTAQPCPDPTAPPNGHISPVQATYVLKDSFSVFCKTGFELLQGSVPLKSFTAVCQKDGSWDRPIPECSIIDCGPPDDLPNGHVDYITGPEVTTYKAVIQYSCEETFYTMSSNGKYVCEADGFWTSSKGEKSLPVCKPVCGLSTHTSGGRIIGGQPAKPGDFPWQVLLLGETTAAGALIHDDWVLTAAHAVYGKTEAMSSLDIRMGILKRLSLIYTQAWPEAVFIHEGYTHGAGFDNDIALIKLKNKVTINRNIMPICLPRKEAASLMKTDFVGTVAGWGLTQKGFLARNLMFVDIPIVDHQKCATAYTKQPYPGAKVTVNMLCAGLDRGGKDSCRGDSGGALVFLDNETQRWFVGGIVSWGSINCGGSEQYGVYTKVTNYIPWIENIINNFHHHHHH
T3 sequence (O00187 other isoform, or with tags, fused parts or gaps limits assumed): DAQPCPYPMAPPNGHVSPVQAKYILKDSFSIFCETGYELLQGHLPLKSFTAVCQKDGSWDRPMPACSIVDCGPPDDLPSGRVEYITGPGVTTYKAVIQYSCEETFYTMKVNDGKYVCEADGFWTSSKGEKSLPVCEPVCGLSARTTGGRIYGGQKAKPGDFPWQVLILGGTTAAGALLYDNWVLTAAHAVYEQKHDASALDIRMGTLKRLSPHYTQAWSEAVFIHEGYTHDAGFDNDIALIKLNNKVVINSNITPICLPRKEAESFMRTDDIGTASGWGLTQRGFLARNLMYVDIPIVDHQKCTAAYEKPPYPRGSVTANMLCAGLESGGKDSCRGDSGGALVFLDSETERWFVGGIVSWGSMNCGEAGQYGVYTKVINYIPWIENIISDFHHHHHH

| Binder | human MASP1 IC50 [1] [µM] | human MASP2 IC50 [2] [µM] | rat MASP1 IC50 [3] [nM] | rat MASP2 IC50 [4] [nM] | human MASP1 IC50 [5] [nM] | human MASP2 IC50 [6] [nM] | rat MASP1 IC50 [7] [nM] | rat MASP2 IC50 [8] [nM] |
| --- | --- | --- | --- | --- | --- | --- | --- | --- |
| B1 | 0.145 | 0.895 | 1000 | 232 | – | – | – | – |
| B2 | 8.13 | – | 1000 | 126 | – | – | – | – |
| B3 | 4.8 | 5 | 1000 | 1000 | – | – | – | – |
| cyclo([Ahx][Sar]ICSRS[tBuAla]PPI[Pen]IP) (disulfide 4-12; also: TFA salt) [Example 54: (Ahx)**-((N-Me)G)-IC+SRS-((tBu)A)-PPI-(Pen)+-IP**] | – | – | – | – | 8.5 | 33 | 180 | 18 |
| cyclo(ICSRS[tBuAla]PPI[Pen]IPP) (disulfide 2-10; also: TFA salt) [Example 58: I**C+SRS-((tBu)A)-PPI-(Pen)+-IPP**] | – | – | – | – | 9 | 650 | 110 | 46 |
